Data: article PMC12548284, “SIK2-mediated phosphorylation of GABARAPL2 facilitates autophagosome–lysosome fusion and rescues neurodegeneration in an Alzheimer’s disease model” (Translational Neurodegeneration, 2025)

Target: T1, GST-GABARAPL2 (UniProt P60520 1-117)
T1 construct: GABARAPL2 of the bought GST fusion protein; source: bought: Proteintech (Ag1155)
Experiment: pull-down; competitive GST pull-down: GST-GABARAPL2 on glutathione-conjugated Sepharose beads, SIK2 protein in solution, LIR peptide at 0, 5, 10, 20, 40 μmol/L; immunoblot
Details: both partners purified

T1 sequence (P60520 whole entry, the tested form may be a part): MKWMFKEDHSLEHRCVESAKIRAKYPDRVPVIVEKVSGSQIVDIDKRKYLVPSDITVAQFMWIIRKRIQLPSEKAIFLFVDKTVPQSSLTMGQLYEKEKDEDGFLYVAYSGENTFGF

B1: LC3-interacting region (LIR) 326–333 (FAAIYFLL) peptide (peptide)
peptide: FAAIYFLL
notes: SIK2 residues 326-333, the canonical LIR motif within 290-550; also called LIR peptide; source: synthetic peptide; bought: Sangon Biotech
binding result: binds
